B1: Beta-adrenergic receptor kinase 1 (Homo sapiens), P25098 (parent)
chain: MADLEAVLADVSYLMAMEKSKATPAARASKKILLPEPSIRSVMQKYLEDRGEVTFEKIFSQKLGYLLFRDFCLNHLEEARPLVEFYEEIKKYEKLETEEERVARSREIFDSYIMKELLACSHPFSKSATEHVQGHLGKKQVPPDLFQPYIEEICQNLRGDVFQKFIESDKFTRFCQWKNVELNIHLTMNDFSVHRIIGRGGFGEVYGCRKADTGKMYAMKCLDKKRIKMKQGETLALNERIMLSLVSTGDCPFIVCMSYAFHTPDKLSFILDLMNGGDLHYHLSQHGVFSEADMRFYAAEIILGLEHMHNRFVVYRDLKPANILLDEHGHVRISDLGLACDFSKKKPHASVGTHGYMAPEVLQKGVAYDSSADWFSLGCMLFKLLRGHSPFRQHKTKDKHEIDRMTLTMAVELPDSFSPELRSLLEGLLQRDVNRRLGCLGRGAQEVKESPFFRSLDWQMVFLQKYPPPLIPPRGEVNAADAFDIGSFDEEDTKGIKLLDSDQELYRNFPLTISERWQQEVAETVFDTINAETDRLEARKKAKNKQLGHEEDYALGKDCIMHGYMSKMGNPFLTQWQRRYFYLFPNRLEWRGEGEAPQSLLTMEEIQSVEETQIKERKCLLLKIRGGKQFILQCDSDPELVQWKKELRDAYREAQQLVQRVPKMKNKPRSPVVELSKVPLVQRGSANGL
partner: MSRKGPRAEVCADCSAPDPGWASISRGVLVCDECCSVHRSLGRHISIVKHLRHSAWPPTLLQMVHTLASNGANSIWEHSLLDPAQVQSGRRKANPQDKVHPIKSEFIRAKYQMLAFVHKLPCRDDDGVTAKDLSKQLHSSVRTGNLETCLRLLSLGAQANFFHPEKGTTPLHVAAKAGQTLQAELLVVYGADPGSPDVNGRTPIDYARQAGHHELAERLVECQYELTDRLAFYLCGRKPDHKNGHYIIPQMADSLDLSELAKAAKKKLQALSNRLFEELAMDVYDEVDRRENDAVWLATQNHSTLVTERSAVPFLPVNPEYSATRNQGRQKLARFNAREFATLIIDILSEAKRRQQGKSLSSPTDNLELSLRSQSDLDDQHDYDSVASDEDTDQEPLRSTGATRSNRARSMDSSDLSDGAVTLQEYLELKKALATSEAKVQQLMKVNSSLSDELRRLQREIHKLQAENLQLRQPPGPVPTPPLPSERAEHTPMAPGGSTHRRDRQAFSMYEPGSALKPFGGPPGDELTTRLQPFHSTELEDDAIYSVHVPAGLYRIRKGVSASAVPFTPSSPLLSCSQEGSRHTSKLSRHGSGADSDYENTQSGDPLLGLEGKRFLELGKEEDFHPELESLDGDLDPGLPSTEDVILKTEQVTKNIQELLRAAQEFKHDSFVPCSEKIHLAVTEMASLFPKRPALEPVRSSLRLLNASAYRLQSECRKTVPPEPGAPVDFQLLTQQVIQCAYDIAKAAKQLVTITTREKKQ

Variants of: B1
Settings: with git1_human GIT1, Q9Y2X7

Row | Variant | effect of a mutation on the interaction
1 | Y86D;Y92D | increasing interaction

Variants of: B1
Settings: with git1_human GIT1, Q9Y2X7
Remark: another data set of the same source

Row | Variant | effect of a mutation on the interaction
2 | S670A | increasing interaction

Variants of: B1
Settings: with git1_human GIT1, Q9Y2X7
Remark: another data set of the same source

Row | Variant | effect of a mutation on the interaction
3 | S670D | disrupting interaction

Variants of: B1
Settings: with git1_human GIT1, Q9Y2X7
Remark: another data set of the same source

Row | Variant | effect of a mutation on the interaction
4 | Y13F;Y86F;Y92F | disrupting interaction
